Experimental data published in patent US20100260668A1 (published 2010).
Several values for one entry are separate records, joined by “and”; a condition that tells them apart may be missing. Equal values may be shown once.

What was measured:
EGFR on A431 cells [1] = molecular target: T1, EGFR on A431 cells (human, UniProt P00533 25-1210); experiment: cell-based or functional assay
ErbB3 on A431 cells [2] = molecular target: T2, ErbB3 on A431 cells (human, UniProt P21860 20-1342); experiment: cell-based or functional assay
EGFR on A431 cells [3] = molecular target: T1, EGFR on A431 cells; experiment: cell-based or functional assay; remark: listed apart in the source
ErbB3 on A431 cells [4] = molecular target: T2, ErbB3 on A431 cells; experiment: cell-based or functional assay; remark: listed apart in the source
PlGF = molecular target: T3, PlGF (UniProt P49763-2 21-149, limits assumed); experiment: direct bind ELISA, antigen on plate; reference antibody
T3 construct: Bought antigen coated on the ELISA plate; also called Placental GF; placental growth factor
T3 sequence (looked up): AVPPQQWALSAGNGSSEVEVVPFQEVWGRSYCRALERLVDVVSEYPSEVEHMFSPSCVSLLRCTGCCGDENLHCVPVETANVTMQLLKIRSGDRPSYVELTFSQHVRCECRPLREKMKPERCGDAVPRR
Protocol: (§1) Enzyme Linked Immunosorbent Assays to screen for antibodies that bind a desired target antigen were performed as follows. […] Plates were washed four times with PBS containing 0.02% Tween 20. Plates were blocked by the addition of 300 μL/well blocking solution (non-fat dry milk powder, various retail suppliers, diluted to 2% in PBS) for ½ hour at room temperature. Plates were washed four times after blocking with PBS containing 0.02% Tween 20.
(§2) Plates were washed 4 times with PBS containing 0.02% Tween 20.

VEGF = molecular target: T4, VEGF (UniProt P15692 27-191, limits assumed); experiment: as above
T4 construct: Bought antigen coated on the ELISA plate; also called vascular endothelial growth factor
Protocol: as §1, §2

VEGF 1-165 aa = molecular target: T5, VEGF 1-165 aa (UniProt P15692 27-191); experiment: direct bind ELISA (ref Ab)
T5 construct: Bought antigen coated on the ELISA plate
Protocol: as §1
Alternatively, one hundred microliters per well of 10 μg/ml of Histidine (His) tagged desired target antigen (R&D Systems, Minneapolis, Minn.) was added to ELISA plates coated with monoclonal mouse anti-polyHistidine antibody as described above and incubated for 1 hour at room temperature. Wells were washed four times with PBS containing 0.02% Tween 20.
as §2

IGF1R ECD = molecular target: T6, IGF1R ECD (UniProt P08069 31-935, limits assumed); experiment: Direct Bind ELISA, antigen on plate
T6 construct: extracellular domain; Bought reagent

[5] = molecular target: T7, RON (MSP Receptor ECD-His tag) (UniProt Q04912 25-957, limits assumed); experiment: Direct Bind ELISA, antigen on plate
T7 construct: extracellular domain; Bought reagent

HGF (HGF-His tag) = molecular target: T8, HGF (HGF-His tag) (UniProt P14210 32-728); experiment: Direct Bind ELISA, antigen on plate
T8 construct: Bought reagent
T8 sequence (P14210 32-728 limits assumed): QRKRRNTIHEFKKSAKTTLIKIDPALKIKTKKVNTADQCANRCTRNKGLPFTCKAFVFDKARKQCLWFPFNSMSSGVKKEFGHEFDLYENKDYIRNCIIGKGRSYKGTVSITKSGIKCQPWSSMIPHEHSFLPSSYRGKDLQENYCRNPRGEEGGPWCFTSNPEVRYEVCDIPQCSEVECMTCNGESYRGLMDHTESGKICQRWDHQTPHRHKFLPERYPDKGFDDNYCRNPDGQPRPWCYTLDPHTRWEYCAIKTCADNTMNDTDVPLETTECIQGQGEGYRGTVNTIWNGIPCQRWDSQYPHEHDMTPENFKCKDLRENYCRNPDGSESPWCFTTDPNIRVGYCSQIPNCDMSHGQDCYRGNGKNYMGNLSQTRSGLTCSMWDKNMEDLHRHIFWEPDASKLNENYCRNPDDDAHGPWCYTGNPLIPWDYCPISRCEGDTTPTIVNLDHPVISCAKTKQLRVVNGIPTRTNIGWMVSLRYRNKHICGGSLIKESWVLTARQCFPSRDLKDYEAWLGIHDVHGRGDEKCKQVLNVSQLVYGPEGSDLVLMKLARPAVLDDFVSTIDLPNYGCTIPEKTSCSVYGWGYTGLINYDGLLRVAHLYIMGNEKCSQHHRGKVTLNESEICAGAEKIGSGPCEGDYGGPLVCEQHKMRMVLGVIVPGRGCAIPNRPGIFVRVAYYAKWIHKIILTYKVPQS

T5 sequence (P15692 other isoform, or with tags, fused parts or gaps limits assumed): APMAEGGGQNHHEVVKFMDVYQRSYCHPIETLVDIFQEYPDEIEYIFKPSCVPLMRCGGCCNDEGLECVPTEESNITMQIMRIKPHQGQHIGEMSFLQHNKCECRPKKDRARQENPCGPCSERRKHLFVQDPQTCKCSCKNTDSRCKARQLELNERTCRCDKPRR
T4 sequence (P15692 other isoform, or with tags, fused parts or gaps limits assumed): as above

B1: AB008 (anti-CD-22 antibody, used as control) (antibody, human IgG1, kappa, V domains shown)
VH: QVQLVQSGAEVKKPGSSVKVSCKASGYTFTSYWLHWVRQAPGQGLEWIGYINPRNDYTEYNQNFKDKATITADESTNTAYMELSSLRSEDTAFYFCARRDITTFYWGQGTTVTVSS
VL: DIQLTQSPSSLSASVGDRVTMSCKSSQSVLYSANHKNYLAWYQQKPGKAPKLLIYWASTRESGVPSRFSGSGSGTDFTFTISSLQPEDIATYYCHQYLSSWTFGGGTKLEIKR
With B1 as the binder, how does the “Inhibition Of A431 Proliferation (% Inhibition At 21.6 nM Ab/DVD)” value (EGFR on A431 cells [1]) read?
The value was 6%.

What about the “Inhibition Of A431 Proliferation (% Inhibition At 21.6 nM Ab/DVD)” value (ErbB3 on A431 cells [2]) of the same binder?
Its value is 6%.

And the “Inhibition Of EGFR Phosphorylation (% Inhibition At 60 nM Ab/DVD)” value (EGFR on A431 cells [3])?
Its value is 4%.

What about the “Inhibition Of ErbB3 Phosphorylation (% Inhibition At 60 nM Ab/DVD)” value (ErbB3 on A431 cells [4]) of the same binder?
The value was 0%.

B2: AB047 (antibody, human IgG1, kappa, V domains shown)
VH: QVQLQQSGAELVKPGASVKISCKASGYTFTDYYINWVKLAPGQGLEWIGWIYPGSGNTKYNEKFKGKATLTIDTSSSTAYMQLSSLTSEDTAVYFCVRDSPFFDYWGQGTLLTVSS
VL: DIVLTQSPDSLAVSLGERVTMNCKSSQSLLNSGMRKSFLAWYQQKPGQSPKLLIYWASTRESGVPDRFTGSGSGTDFTLTISSVQAEDVAVYYCKQSYHLFTFGSGTKLEIKR
notes: also called AB047VH; AB047VL
For B2, which EC50 (PlGF) is on record?
Its EC50 is 0.13 nM and 0.14 nM.

B3: AB071 (antibody, human IgG1, kappa, L234A L235A, V domains shown)
VH: EVQLVESGGGLVQPGGSLRLSCAASGFTINASWIHWVRQAPGKGLEWVGAIYPYSGYTNYADSVKGRFTISADTSKNTAYLQMNSLRAEDTAVYYCARWGHSTSPWAMDYWGQGTLVTVSS
VL: DIQMTQSPSSLSASVGDRVTITCRASQVIRRSLAWYQQKPGKAPKLLIYAASNLASGVPSRFSGSGSGTDFTLTISSLQPEDFATYYCQQSNTSPLTFGQGTKVEIKR
notes: also called AB071VH; AB071VL
With B3 as the binder, how does the EC50 (VEGF) read?
Its EC50 is 20.9 nM.

B4: AB071 (antibody, human IgG1, kappa, L234A L235A, V domains shown)
VH: B3 VH
VL: B3 VL
notes: Vectors V7/V2
With B4 as the binder, how does the EC50 (VEGF 1-165 aa) read?
Its EC50 is 40.4 nM and 80.4 nM and 79.5 nM.

B5: AB011 (anti-IGF1R (seq. 1) parent antibody) (antibody, IgG1, V domains shown)
VH: EVQLLESGGGLVQPGGSLRLSCTASGFTFSSYAMNWVRQAPGKGLEWVSAISGSGGTTFYADSVKGRFTISRDNSRTTLYLQMNSLRAEDTAVYYCAKDLGWSDSYYYYYGMDVWGQGTTVTVSS
VL: DIQMTQFPSSLSASVGDRVTITCRASQGIRNDLGWYQQKPGKAPKRLIYAASRLHRGVPSRFSGSGSGTEFTLTISSLQPEDFATYYCLQHNSYPCSFGQGTKLEIKR
notes: HC vector V1 (wild-type hIgG1 constant), LC vector V2 (kappa constant); also called AB011VH; AB011VL
How did the EC50 (IGF1R ECD) turn out when B5 was run?
The EC50 was 0.28 nM.

B6: AB005 (anti-RON (seq. 1) parent antibody) (antibody, IgG1, V domains shown)
VH: EVQLVQSGGGLVKPGGSLRLSCAASGFTFSSYAMHWVRQAPGKGLEWVAVISYDGSNKYYADSVKGRFTISRDNSKNTLYLQMNSLRAEDTAVYYCARFSGWPNNYYYYGMDVWGQGTTVTVSS
VL: DVVMTQSPLSLPVTPGEPASISCRSSQSLLHSNGFNYVDWYLQKPGQSPHLLIYFGSYRASGVPDRFSGSGSGTDFTLKISRVEAEDVGVYYCMQALQTPPWTFGQGTKVEIRR
notes: HC vector V1 (wild-type hIgG1 constant), LC vector V2 (kappa constant); also called AB005VH; AB005VL
Which EC50 [5] does the source give for B6 here?
The EC50 was 0.26 nM and 0.21 nM.

B7: AB012 (anti-HGF (seq. 1) parent antibody) (antibody, IgG1, V domains shown)
VH: QVQLVESGGGLVKPGGSLRLSCAASGFTFSDYYMSWIRQAPGKGLEWVSYISSSGSTIYYADSVKGRFTISRDNAKNSLYLQMNSLRAEDTAVYYCARDEYNSGWYVLFDYWGQGTLVTVSS
VL: DIQMTQSPSSVSASVGDRVTITCRASQGISSWLAWYQQKPGKAPNLLIYEASSLQSGVPSRFGGSGSGTDFTLTISSLQPEDFATYYCQQANGFPWTFGQGTKVEIKR
notes: HC vector V1 (wild-type hIgG1 constant), LC vector V2 (kappa constant); also called AB012VH; AB012VL
Which EC50 (HGF (HGF-His tag)) does the source give for B7 here?
The EC50 was 0.22 nM and 0.19 nM.
